From patent publication US20030166872A1 (APPLIED MOLECULAR EVOLUTION, published 2003)

biological target: T1, integrin αVβ3 (human, UniProt P06756 31-1048; P05106 27-788); experiment: SPR (BIAcore)
T1 construct: mature; biotinylated in capture lift and capture ELISA; also on M21 melanoma cells in some assays; also called vitronectin receptor; αVβ3 receptor

fold slower dissociation rate	fold greater association rate	Binder
> 10 fold		LM609 grafted antibody combinatorial clone 2G4 (Fab, V domains shown, Fab) VH: QVQLVESGGGVVQPGRSLRLSCAASGFTFSSYDMSWVRQAPGKGLEWVAKVSSGGGSTYYLDTVQGRFTISRDNSKNTLYLQMNSLRAEDTAVYYCARHNYGSFASWGQGTTVTVSS VL: EIVLTQSPATLSLSPGERATLSCQASQSISNHLHWYQQRPGQAPRLLIRYRSQSISGIPARFSGSGSGTDFTLTISSLEPEDFAVYYCQQSGSWPLTFGGGTKVEIK
> 10 fold	2 to 4 fold	LM609 grafted antibody combinatorial clone 6G1 (Fab, V domains shown, Fab) VH: QVQLVESGGGVVQPGRSLRLSCAASGFTFSSYDMSWVRQAPGKGLEWVAKVSSGGGSTYYPDTVQGRFTISRDNSKNTLYLQMNSLRAEDTAVYYCARHNYGSFASWGQGTTVTVSS VL: EIVLTQSPATLSLSPGERATLSCQASQSISNHLHWYQQRPGQAPRLLIRYRSQSISGIPARFSGSGSGTDFTLTISSLEPEDFAVYYCQQSGSWPLTFGGGTKVEIK
> 10 fold		LM609 grafted antibody combinatorial clone C37 (Fab, V domains shown, Fab) VH: QVQLVESGGGVVQPGRSLRLSCAASGFTFSSYDMSWVRQAPGKGLEWVAKVSSGGGSTYYLDTVQGRFTISRDNSKNTLYLQMNSLRAEDTAVYYCARHNYGSFYEWGQGTTVTVSS VL: EIVLTQSPATLSLSPGERATLSCQASQSISNHLHWYQQRPGQAPRLLIRYRSQSISGIPARFSGSGSGTDFTLTISSLEPEDFAVYYCQQSGSWPLTFGGGTKVEIK
> 10 fold		LM609 grafted antibody combinatorial clone 8F9 (Fab, V domains shown, Fab) VH: QVQLVESGGGVVQPGRSLRLSCAASGFTFSSYDMSWVRQAPGKGLEWVAKVSSGGGSTYYPDTVQGRFTISRDNSKNTLYLQMNSLRAEDTAVYYCARHNHGSFASWGQGTTVTVSS VL: EIVLTQSPATLSLSPGERATLSCQASQSISNHLHWYQQRPGQAPRLLIRYRSQSISGIPARFSGSGSGTDFTLTISSLEPEDFAVYYCQQSGSWPLTFGGGTKVEIK
> 10 fold		LM609 grafted antibody combinatorial clone 17 (Fab, V domains shown, Fab) VH: QVQLVESGGGVVQPGRSLRLSCAASGFTFSSYDMSWVRQAPGKGLEWVAKVSSGGGSTYYLDTVQGRFTISRDNSKNTLYLQMNSLRAEDTAVYYCARHNYGSFASWGQGTTVTVSS VL: EIVLTQSPATLSLSPGERATLSCQASQSISNFLHWYQQRPGQAPRLLIRYRSQSISGIPARFSGSGSGTDFTLTISSLEPEDFAVYYCQQSGSWPHTFGGGTKVEIK
> 10 fold		LM609 grafted antibody combinatorial clone 6D1 (Fab, V domains shown, Fab) VH: QVQLVESGGGVVQPGRSLRLSCAASGFTFSSYDMSWVRQAPGKGLEWVAKVSSGGGSTYYPDTVQGRFTISRDNSKNTLYLQMNSLRAEDTAVYYCARHNYGSFYSWGQGTTVTVSS VL: EIVLTQSPATLSLSPGERATLSCQASQSISNHLHWYQQRPGQAPRLLIRYRSQSISGIPARFSGSGSGTDFTLTISSLEPEDFAVYYCQQSGSWPLTFGGGTKVEIK
> 10 fold		LM609 grafted antibody combinatorial clone C119 (Fab, V domains shown, Fab) VH: QVQLVESGGGVVQPGRSLRLSCAASGFTFSSYDMSWVRQAPGKGLEWVAKVSSGGGSTYYPDTVQGRFTISRDNSKNTLYLQMNSLRAEDTAVYYCARHNYGSFASWGQGTTVTVSS VL: EIVLTQSPATLSLSPGERATLSCQASQSISNHLHWYQQRPGQAPRLLIRYRSQSISGIPARFSGSGSGTDFTLTISSLEPEDFAVYYCQQSNSWPHTFGGGTKVEIK
> 10 fold		LM609 grafted antibody combinatorial clone C176 (Fab, V domains shown, Fab) VH: QVQLVESGGGVVQPGRSLRLSCAASGFTFSSYDMSWVRQAPGKGLEWVAKVSSGGGSTYYPDTVQGRFTISRDNSKNTLYLQMNSLRAEDTAVYYCARHNYGSFATWGQGTTVTVSS VL: EIVLTQSPATLSLSPGERATLSCQASQSISNFLHWYQQRPGQAPRLLIRYRSQSISGIPARFSGSGSGTDFTLTISSLEPEDFAVYYCQQSGSWPHTFGGGTKVEIK
> 10 fold		LM609 grafted antibody combinatorial clone 7 (Fab, V domains shown, Fab) VH: QVQLVESGGGVVQPGRSLRLSCAASGFTFSSYDMSWVRQAPGKGLEWVAKVSSGGGSTYYPDTVQGRFTISRDNSKNTLYLQMNSLRAEDTAVYYCARHNHGSFASWGQGTTVTVSS VL: EIVLTQSPATLSLSPGERATLSCQASQSISNFLHWYQQRPGQAPRLLIRYRSQSISGIPARFSGSGSGTDFTLTISSLEPEDFAVYYCQQSGSWPHTFGGGTKVEIK
> 10 fold	2 to 4 fold	LM609 grafted antibody combinatorial clone C29 (Fab, V domains shown, Fab) VH: QVQLVESGGGVVQPGRSLRLSCAASGFTFSSYDMSWVRQAPGKGLEWVAKVSSGGGSTYYPDTVQGRFTISRDNSKNTLYLQMNSLRAEDTAVYYCARHNHGSFYSWGQGTTVTVSS VL: EIVLTQSPATLSLSPGERATLSCQASQSISNHLHWYQQRPGQAPRLLIRYRSQSISGIPARFSGSGSGTDFTLTISSLEPEDFAVYYCQQSGSWPLTFGGGTKVEIK
> 10 fold		LM609 grafted antibody combinatorial clone 56 (Fab, V domains shown, Fab) VH: QVQLVESGGGVVQPGRSLRLSCAASGFTFSSYDMSWVRQAPGKGLEWVAKVSSGGGSTYYPDTVQGRFTISRDNSKNTLYLQMNSLRAEDTAVYYCARHNYGSFASWGQGTTVTVSS VL: EIVLTQSPATLSLSPGERATLSCQASQSISNFLHWYQQRPGQAPRLLIRYRSQSISGIPARFSGSGSGTDFTLTISSLEPEDFAVYYCQQSGSWPHTFGGGTKVEIK

biological target: T1, integrin αVβ3; experiment: ELISA titration of Fab on immobilized αVβ3
Description: For ELISA titration of Fab on immobilized αVβ₃ and the related integrins αVβ₅ and αIIbβ₃, Immulon II microtiter plates were coated with 1 μg/ml purified receptor in 20 mM Tris, pH 7.4, 150 mM NaCl, 2 mM CaCl, 1 mM MgCl₂, 1 mM MnCl₂, washed once, and blocked in 3% BSA in 50 mM Tris, pH 7.4, 100 mM NaCl, 2 mM CaCl₂, 1 mM MgCl₂ for 1 h at 25° C. […] Just prior to use, the plates were washed two times and were then incubated 1 h at 25° C. with various dilutions of Fab. […] All dilutions and washes were in 50 mM Tris-HCl, pH 7.4, 100 mM NaCl, 2 mM CaCl₂, and 1 mM MgCl₂.

fold enhanced binding over LM609 grafted antibody	Binder
> 3 fold	LM609 grafted antibody variant A102 (Fab, V domains shown, Fab) VH: QVQLVESGGGVVQPGRSLRLSCAASGFTFSSYDMSWVRQAPGKGLEWVAKVSSGGGSTYYLDTVQGRFTISRDNSKNTLYLQMNSLRAEDTAVYYCARHNYGSFAAWGQGTTVTVSS VL: EIVLTQSPATLSLSPGERATLSCQASQSISNHLHWYQQRPGQAPRLLIRYRSQSISGIPARFSGSGSGTDFTLTISSLEPEDFAVYYCQQSGSWPHTFGGGTKVEIK
> 3 fold	LM609 grafted antibody variant E102 (Fab, V domains shown, Fab) VH: QVQLVESGGGVVQPGRSLRLSCAASGFTFSSYDMSWVRQAPGKGLEWVAKVSSGGGSTYYLDTVQGRFTISRDNSKNTLYLQMNSLRAEDTAVYYCARHNYGSFAEWGQGTTVTVSS VL: EIVLTQSPATLSLSPGERATLSCQASQSISNHLHWYQQRPGQAPRLLIRYRSQSISGIPARFSGSGSGTDFTLTISSLEPEDFAVYYCQQSGSWPHTFGGGTKVEIK
> 3 fold	LM609 grafted antibody variant L96 (Fab, V domains shown, Fab) VH: QVQLVESGGGVVQPGRSLRLSCAASGFTFSSYDMSWVRQAPGKGLEWVAKVSSGGGSTYYLDTVQGRFTISRDNSKNTLYLQMNSLRAEDTAVYYCARHNYGSFAYWGQGTTVTVSS VL: EIVLTQSPATLSLSPGERATLSCQASQSISNHLHWYQQRPGQAPRLLIRYRSQSISGIPARFSGSGSGTDFTLTISSLEPEDFAVYYCQQSGSWPLTFGGGTKVEIK
> 3 fold	LM609 grafted antibody variant M102 (Fab, V domains shown, Fab) VH: QVQLVESGGGVVQPGRSLRLSCAASGFTFSSYDMSWVRQAPGKGLEWVAKVSSGGGSTYYLDTVQGRFTISRDNSKNTLYLQMNSLRAEDTAVYYCARHNYGSFAMWGQGTTVTVSS VL: EIVLTQSPATLSLSPGERATLSCQASQSISNHLHWYQQRPGQAPRLLIRYRSQSISGIPARFSGSGSGTDFTLTISSLEPEDFAVYYCQQSGSWPHTFGGGTKVEIK
> 3 fold	LM609 grafted antibody variant K52 (Fab, V domains shown, Fab) VH: QVQLVESGGGVVQPGRSLRLSCAASGFTFSSYDMSWVRQAPGKGLEWVAKVKSGGGSTYYLDTVQGRFTISRDNSKNTLYLQMNSLRAEDTAVYYCARHNYGSFAYWGQGTTVTVSS VL: EIVLTQSPATLSLSPGERATLSCQASQSISNHLHWYQQRPGQAPRLLIRYRSQSISGIPARFSGSGSGTDFTLTISSLEPEDFAVYYCQQSGSWPHTFGGGTKVEIK
> 3 fold	LM609 grafted antibody variant G102 (Fab, V domains shown, Fab) VH: QVQLVESGGGVVQPGRSLRLSCAASGFTFSSYDMSWVRQAPGKGLEWVAKVSSGGGSTYYLDTVQGRFTISRDNSKNTLYLQMNSLRAEDTAVYYCARHNYGSFAGWGQGTTVTVSS VL: EIVLTQSPATLSLSPGERATLSCQASQSISNHLHWYQQRPGQAPRLLIRYRSQSISGIPARFSGSGSGTDFTLTISSLEPEDFAVYYCQQSGSWPHTFGGGTKVEIK
> 3 fold	LM609 grafted antibody variant N92 (Fab, V domains shown, Fab) VH: QVQLVESGGGVVQPGRSLRLSCAASGFTFSSYDMSWVRQAPGKGLEWVAKVSSGGGSTYYLDTVQGRFTISRDNSKNTLYLQMNSLRAEDTAVYYCARHNYGSFAYWGQGTTVTVSS VL: EIVLTQSPATLSLSPGERATLSCQASQSISNHLHWYQQRPGQAPRLLIRYRSQSISGIPARFSGSGSGTDFTLTISSLEPEDFAVYYCQQSNSWPHTFGGGTKVEIK
> 3 fold	LM609 grafted antibody variant P60 (Fab, V domains shown, Fab) VH: QVQLVESGGGVVQPGRSLRLSCAASGFTFSSYDMSWVRQAPGKGLEWVAKVSSGGGSTYYPDTVQGRFTISRDNSKNTLYLQMNSLRAEDTAVYYCARHNYGSFAYWGQGTTVTVSS VL: EIVLTQSPATLSLSPGERATLSCQASQSISNHLHWYQQRPGQAPRLLIRYRSQSISGIPARFSGSGSGTDFTLTISSLEPEDFAVYYCQQSGSWPHTFGGGTKVEIK
> 3 fold	LM609 grafted antibody variant L30 (Fab, V domains shown, Fab) VH: QVQLVESGGGVVQPGRSLRLSCAASGFTFLSYDMSWVRQAPGKGLEWVAKVSSGGGSTYYLDTVQGRFTISRDNSKNTLYLQMNSLRAEDTAVYYCARHNYGSFAYWGQGTTVTVSS VL: EIVLTQSPATLSLSPGERATLSCQASQSISNHLHWYQQRPGQAPRLLIRYRSQSISGIPARFSGSGSGTDFTLTISSLEPEDFAVYYCQQSGSWPHTFGGGTKVEIK
> 3 fold	LM609 grafted antibody variant F32 (Fab, V domains shown, Fab) VH: QVQLVESGGGVVQPGRSLRLSCAASGFTFSSYDMSWVRQAPGKGLEWVAKVSSGGGSTYYLDTVQGRFTISRDNSKNTLYLQMNSLRAEDTAVYYCARHNYGSFAYWGQGTTVTVSS VL: EIVLTQSPATLSLSPGERATLSCQASQSISNFLHWYQQRPGQAPRLLIRYRSQSISGIPARFSGSGSGTDFTLTISSLEPEDFAVYYCQQSGSWPHTFGGGTKVEIK
